Laboratory results as given in paper PMC8152229.

Legend:
[1] = molecular target: F-actin from rabbit skeletal muscle, stabilised by phalloidin (rabbit) (UniProt P68135); assay: co-sedimentation; 10 uM phalloidin-stabilized F-actin mixed with increasing Tpm (0 to 5.5-6 uM; up to almost 40 uM for Tpm1.12); 30 mM Hepes-Na pH 7.3, 200 mM NaCl; 40 min at 25 °C; 100,000 x g for 40 min; SDS-PAGE of pellet and supernatant; K50% = Tpm concentration at which actin is half-saturated
[2] = molecular target: F-actin from rabbit skeletal muscle, stabilised by phalloidin (rabbit) (UniProt P68135); assay: temperature dependence of light scattering; 20 uM F-actin stabilized by 20 uM phalloidin and 10 uM Tpm; 30 mM Hepes-Na pH 7.3, 100 mM NaCl, 2 mM DTT; heating 1 °C/min; light scattering at 90 degrees, 350 nm; T_diss = temperature of 50% decrease
[3] = viscosity (falling ball micro viscometer); Tpm alone at 1.0 or 2.0 mg/mL; 30 mM Hepes-Na pH 7.3, 100 mM NaCl, 2 mM DTT; 20 °C; excess viscosity over buffer (1.0412 mPa∙s) as measure of head-to-tail interaction between Tpm dimers; settings: other: viscosity (falling ball micro viscometer)
P09493 = assay: as above; settings: other: viscosity (falling ball micro viscometer)

Tropomyosin isoform Tpm1.7 with Ala-Ser N-terminal extension, sequence (chain, as listed by the source): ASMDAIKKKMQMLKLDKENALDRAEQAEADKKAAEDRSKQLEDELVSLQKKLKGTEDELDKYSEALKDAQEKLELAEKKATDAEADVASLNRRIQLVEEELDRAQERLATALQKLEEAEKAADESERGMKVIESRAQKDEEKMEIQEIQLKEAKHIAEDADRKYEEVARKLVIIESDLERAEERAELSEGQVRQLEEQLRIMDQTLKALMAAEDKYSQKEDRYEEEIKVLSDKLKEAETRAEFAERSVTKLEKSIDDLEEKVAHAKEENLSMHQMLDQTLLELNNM
Tropomyosin isoform Tpm1.12, sequence (chain, as listed by the source): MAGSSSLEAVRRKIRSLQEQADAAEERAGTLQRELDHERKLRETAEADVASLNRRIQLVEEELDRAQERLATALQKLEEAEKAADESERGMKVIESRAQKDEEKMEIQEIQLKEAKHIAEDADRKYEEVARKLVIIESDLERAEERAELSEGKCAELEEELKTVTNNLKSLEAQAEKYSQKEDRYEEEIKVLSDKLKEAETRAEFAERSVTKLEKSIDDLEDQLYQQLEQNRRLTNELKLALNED

Row | K50% [1] | T diss [2] | Substance | excess viscosity at 1 mg/mL [3] | excess viscosity at 2 mg/mL [3] | excess viscosity at 1 mg/mL (P09493) | excess viscosity at 2 mg/mL (P09493)
1 | 0.45 µM | 41.4 °C | Tropomyosin isoform Tpm1.6 with Ala-Ser N-terminal extension (natural protein) | – | – | – | –
2 | – | – | Tropomyosin isoform Tpm1.5 with Ala-Ser N-terminal extension | 0.179 mPa∙s | 0.653 mPa∙s | – | –
3 | 1.11 µM | 48.9 °C | Tropomyosin isoform Tpm1.5 with Ala-Ser N-terminal extension (natural protein) | – | – | – | –
4 | – | – | Tropomyosin isoform Tpm1.12 | – | – | 0.026 mPa∙s | 0.066 mPa∙s
5 | – | – | Tropomyosin isoform Tpm1.6 with Ala-Ser N-terminal extension | 0.474 mPa∙s | 1.34 mPa∙s | – | –
6 | – | – | Tropomyosin isoform Tpm1.7 with Ala-Ser N-terminal extension | – | – | 1.03 mPa∙s | 3.58 mPa∙s
